According to US20260232732A1 (FUNDACI INSTITUT DE RECERCA CONTRA LA LEUC MIA JOSEP …, published 2026):
Where no end group is shown, it is not given here. The star is where a group is joined. Biotin = O=C1N[C@H]2[C@H](CS[C@H]2CCCCC(=O)*)N1

B1: anti-CCR9 antibody clone 115 (murine, from hybridoma #115) (antibody, V domains shown)
VH: QVQLKQSGPELVKPGTSVRVSCTASGYSFTDYIIYWVKQSHGRSLEWIGYIDPNNYNTRYSQKFKGKATLTVDKSSTSAFMHLNSLTSDDSAVYYCARDVYWGQGTTLTVSS
VL: DVVMTQTPLSLTVSLGDQASISCRSSQSLVHSNGKTYLQWYLQKPGQSPKLLIYKVSNRFSGVPDRFSGSGSGTDFTLKISRVEAEDLGVYFCAQSTHVWTFGGGTKLEIKR
notes: Mouse IgG1
B2: CCR9_HUM2 scFv (humanized anti-CCR9 scFv, SEQ ID NO: 17 with C-terminal 6xHis tag) (scFv)
scFv: QVQLVQSGAEVKKPGASVKVSCTASGYSFTDYIIYWVKQAHGQSLEWMGYIDPNNYNTRYSQKFQGKVTITVDKSSTSAYMELNSLTSDDTAVYYCARDVYWGQGTTVTVSSGGGGSGGGGSGGGGSGGGGSDVVMTQTPLSLSVTPGQPASISCRSSQSLVHSNGKTYLQWYLQKPGQSPKLLIYKVSNRFSGVPDRFSGSGSGTDFTLKISRVEAEDVGVYFCAQSTHVWTFGGGTKVEIKRAHHHHHH

What was measured:
[1] = molecular target: T1, Peptide 3-BSA (SSMEDYVNFN-C conjugated to BSA) (human); experiment: ELISA; Ab 0.0625 ug/mL; repI
T1 peptide: SSMEDYVNFNC(BSA)
Method: (§1) In brief, plates with each non-conjugated peptide (50 μg/mL) or BSA-conjugated peptide (5 μg/mL) were coated in 0.58M carbonate-bicarbonate buffer pH9.5, 100 μL/well, at 4° C. […] After washing, wells were incubated with the 3, 3′,5,5′-Tetramethylbenzidine (TMB) HRP substrate and reactions were stopped with 2M HCl and OD450 was recorded.

[2] = molecular target: T2, Peptide 4-BSA (SMEDYVNFNF-C conjugated to BSA) (human); experiment: ELISA; Ab 0.0625 ug/mL; repI
T2 peptide: SMEDYVNFNFC(BSA)
Method: as §1

[3] = molecular target: T3, Peptide 1, non-conjugated (MADDYGSEST-C) (human); experiment: ELISA; Ab 0.0625 ug/mL; repI
T3 construct: With the extra C-terminal Cys
T3 peptide: MADDYGSESTC
Method: as §1

[4] = molecular target: T4, Peptide 2, non-conjugated (GSESTSSMED-C) (human); experiment: ELISA; Ab 0.0625 ug/mL; repI
T4 construct: With the extra C-terminal Cys
T4 peptide: GSESTSSMEDC
Method: as §1

[5] = molecular target: T5, Peptide 3, non-conjugated (SSMEDYVNFN-C) (human); experiment: ELISA; Ab 0.0625 ug/mL; repI
T5 construct: With the extra C-terminal Cys
T5 peptide: SSMEDYVNFNC
Method: as §1

[6] = molecular target: T6, Peptide 4, non-conjugated (SMEDYVNFNF-C) (human); experiment: ELISA; Ab 0.0625 ug/mL; repI
T6 construct: With the extra C-terminal Cys
T6 peptide: SMEDYVNFNFC
Method: as §1

[7] = molecular target: T7, BSA (negative control coating) (bovine, UniProt P02769 25-607); experiment: ELISA; Ab 0.0625 ug/mL; repI
T7 construct: also called Negative control BSA
T7 sequence (P02769 25-607 limits assumed): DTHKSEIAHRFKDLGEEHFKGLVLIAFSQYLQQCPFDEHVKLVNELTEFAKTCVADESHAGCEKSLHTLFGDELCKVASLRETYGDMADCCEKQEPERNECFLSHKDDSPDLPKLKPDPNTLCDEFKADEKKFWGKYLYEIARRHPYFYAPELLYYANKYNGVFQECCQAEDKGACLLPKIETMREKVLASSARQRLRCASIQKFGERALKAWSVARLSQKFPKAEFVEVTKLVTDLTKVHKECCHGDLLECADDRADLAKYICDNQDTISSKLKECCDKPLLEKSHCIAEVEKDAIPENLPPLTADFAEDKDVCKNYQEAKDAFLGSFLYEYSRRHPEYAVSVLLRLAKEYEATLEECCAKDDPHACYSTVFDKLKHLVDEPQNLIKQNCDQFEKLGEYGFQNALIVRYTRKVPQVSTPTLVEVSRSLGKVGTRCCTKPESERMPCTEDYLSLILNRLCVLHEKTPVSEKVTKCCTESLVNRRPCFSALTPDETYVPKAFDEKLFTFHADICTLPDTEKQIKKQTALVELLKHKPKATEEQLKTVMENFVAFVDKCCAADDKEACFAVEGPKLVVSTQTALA
Method: as §1

[8] = molecular target: T8, antigen peptide-BSA (immunisation peptide #1 MADDYGSESTSSMEDYVNFNF-C conjugated to BSA) (human, extra C-terminal Cys conjugated to BSA); experiment: ELISA; Ab 0.0625 ug/mL; repI
T8 construct: also called Positive control antigen peptide-BSA; MADDY peptide
T8 peptide: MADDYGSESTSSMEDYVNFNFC
Method: as §1

[9] = molecular target: T9, Peptide 1-BSA (MADDYGSEST-C conjugated to BSA) (human); experiment: ELISA; Ab 0.0625 ug/mL; repI
T9 peptide: MADDYGSESTC(BSA)
Method: as §1

[10] = molecular target: T10, Peptide 2-BSA (GSESTSSMED-C conjugated to BSA) (human); experiment: ELISA; Ab 0.0625 ug/mL; repI
T10 peptide: GSESTSSMEDC(BSA)
Method: as §1

[11] = molecular target: T2, Peptide 4-BSA (SMEDYVNFNF-C conjugated …); experiment: ELISA; Ab 0.01563 ug/mL; repI
Method: as §1

[12] = molecular target: T3, Peptide 1, non-conjugated (MADDYGSEST-C); experiment: ELISA; Ab 0.01563 ug/mL; repI
Method: as §1

[13] = molecular target: T5, Peptide 3, non-conjugated (SSMEDYVNFN-C); experiment: ELISA; Ab 0.01563 ug/mL; repI
Method: as §1

[14] = molecular target: T9, Peptide 1-BSA (MADDYGSEST-C conjugated …); experiment: ELISA; Ab 0.01563 ug/mL; repI
Method: as §1

[15] = molecular target: T10, Peptide 2-BSA (GSESTSSMED-C conjugated …); experiment: ELISA; Ab 0.01563 ug/mL; repI
Method: as §1

[16] = molecular target: T11, biotin-peptide TSSMEDYVNF (human); experiment: ELISA biotin-peptide; scFv 10 ug/mL; repI
T11 peptide: Biotin-TSSMEDYVNF
Method: (§2) The peptides were synthesized naked or with a N-terminal Biotin modification with a purity of >98%. All four scFvs were verified by ELISA that can be detected with anti-His antibodies. ELISA was performed for scFv-peptide binding validation. Briefly, naked peptides were coated (50 μg/mL) in 0.58M carbonate-bicarbonate buffer pH9.5, 100 μL/well, 4° C. O/N. Then after blocking (3% BSA-PBS, 300 μL/well 37° C. 1.5 h) and washing (PBS+Tween-20 0.05% v/v (0.05% PBST), wells were incubated with each purified scFv antibody at concentration of 1 μg/mL in PBS at 37° C. 1 h. After washing (0.05% PBST), wells were incubated with secondary antibodies (goat anti-His IgG-HRP) in PBS, 37° C., 30 min. After washing, and incubation with TMB substrate, reactions were stopped with 2M HCl and reading was quantified at OD450.
(§3) ELISA with biotin-conjugated peptides (5 μg/mL) was performed very similar to described above with minor modifications.
(§4) A full curve ELISA was performed for each positive scFv/biotin-peptide pair in order to confirm previous results. Tables 15-17 show ELISA results of the dose-dependent full curve for each positive peptide with scFv “CCR9_HUM”, “Comp-2” and “Comp-3”, respectively.

[17] = molecular target: T12, biotin-peptide SSMEDYVNFN (human); experiment: ELISA biotin-peptide; scFv 10 ug/mL; repI
T12 peptide: Biotin-SSMEDYVNFN
Method: as §2, §3, §4

[18] = molecular target: T13, biotin-peptide SMEDYVNFNF (human); experiment: ELISA biotin-peptide; scFv 10 ug/mL; repI
T13 peptide: Biotin-SMEDYVNFNF
Method: as §2, §3, §4

[19] = molecular target: T14, biotin-peptide MEDYVNFNFT (human); experiment: ELISA biotin-peptide; scFv 10 ug/mL; repI
T14 peptide: Biotin-MEDYVNFNFT
Method: as §2, §3, §4

OD450 [1]	OD450 [2]	OD450 [3]	OD450 [4]	OD450 [5]	OD450 [6]	OD450 [7]	OD450 [8]	OD450 [9]	OD450 [10]	OD450 [11]	OD450 [12]	OD450 [13]	OD450 [14]	OD450 [15]	OD450 [16]	OD450 [17]	OD450 [18]	OD450 [19]	Binder
1.88 OD	1.98 OD	0.01 OD	0.01 OD	1.83 OD	1.14 OD	0.01 OD	1.84 OD	0.01 OD	0.01 OD	0.91 OD	0.01 OD	1.47 OD	0.01 OD	0.01 OD	–	–	–	–	B1
–	–	–	–	–	–	–	–	–	–	–	–	–	–	–	1.46 OD	1.9 OD	1.79 OD	1.72 OD	B2
